According to the RNAGym collection of RNA variant scans (doi:10.1073/pnas.2313332121):
Fewer inactive variants are shown than the library holds.

B1: TPR 5TU (parent)
chain: GGAUCUUCUCGAUCUAACAAAAAAGACAAAUCUGCCACAAAGCUUGAGAGCAUCUUCGGAUGCAGAGGCGGCAGCCUUCGGUGGCGCGAUAGCGCCAACGUUCUCAACUAUGACACGCAAAACGCGUGCUCCGUUGAAUGGAGUUUAUCAUG

Variants of: B1
Experiment: polymerase ribozyme fitness, log enrichment relative to wild type (log ratio); higher = more active; in vitro selection for triplet polymerase activity
Outline: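 Mutant libraries of both subunits of a heterodimeric triplet polymerase ribozyme were PCR-built, transcribed, and selected once in triplicate, with frozen incubation at −7 °C and capture of gel-excised extended constructs on streptavidin beads before RT-PCR. Illumina sequencing of input and output libraries was filtered to genotypes with ≥10 input reads and ≥1 read per output. Fitness is the logarithm of genotype enrichment over wild-type enrichment, using inverse-variance-weighted replicate averages. The logarithm is base 2.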

| Variant | polymerase ribozyme fitness (log ratio) |
| --- | --- |
| GGAUAUUCUCGAUCUAACAAAAAAGACAAAUCUGCCACAAAGCUUGAGAGCAUCUUCGGAUGCAGAGGCGGCAGCCUUCGGUGGUCCGAUAGCGCCAACGUUCUCAACUAUGACACGCCCAACGCGUGCUCCGUUGAAUGGAGUUUAUCAUG [C5A C85U G86C A119C A120C] | -3.07 |
| GGAUAUUCUCGAUCUAACAAAAAAGACAAAUCUGCCACAACGCUUGAGAGCAUUUUCGGAUGCAGAGGCGGCAGCCUUCGGUGGAGCGAUAGCGCCAACGUUAUCAACUAUGACACACAAAACGCGUGCUCCCUUGUAUGGAGUUUAUCAUG [C5A A41C C54U C85A C103A G117A G133C A137U] | ≤ -4.2 |
| GGAUAUUCUCGAUGUAACAAAAAAGACAAAUCUGCCUCAAAGCUUGAGAGCCUCUUCGGAUGCAGAGGCGGCAGCCUUCGGUGGGGCGAUAGCGCCAAUGUUCUCAACUAUGACACGCAAAACGCGUGCUCCGUUGAAUUGAGUUUAUCAUG [C5A C14G A37U A52C C85G C99U G140U] | ≤ -4.2 |
| GGAUAUUCUCGAUCUAACAAAAAAGACAAAUCUGCCACAAAGCUUGAGAGCAUCUUCGGAUGCAGAGGCGGCAGCUUUCGGUGGCGCGAUAGCGCCAACGUUCUCAACUAUGACACGCAAAACGCGUGCUCCGUUGAAUGGAGUUUAUCAUG [C5A C76U] | -0.144 |
| GGAUAUUCUCGAUCUAACAAAAAAGACAAAUCUGCCACAAAGCUUGAGAGCAUCUUCGGGUGCAGAGGCGGCAGCCUUCGGUGGCGCGAUAGCGCCAACGUUCUCAACUAUGACACGCAAAACGCGUGCUCCGUUGAAUGGAGUUUAUCAUG [C5A A60G] | 0.956 |
| GGAUAUUCUCGAUCUAACAAAAAAGACAAAUCUGCCACAAAGCUUGAGAGCAUCUUCGGAUGCAGAGGCGGCAGCCUUCGGUGGCGCGAUAGCGCCAACGUUAUCAACUAUGACACGCAAAACGCGUGCUCCGUUGAAUGGAGUUUAUCAUG [C5A C103A] | -1.35 |
| GGAUAUUCUCGAUCUAACAAAAAAGACAAAUCUGCCACAAAGCUUGAGAGCAUUAUCGGAUGCAGAGGCGGCAGCCUUCGGUGGCGCGAUAGCGGAAACGUUCUCAACUAUGACACGCAAAACGCGUGCUCCGUUGAAUGGAGUUUAUCAUG [C5A C54U U55A C95G C96A] | -4.05 |
| GGAUAUUCUCGAUCUAACAAAAAAGAUAAAUCUGCCACAAAGCUUGAGAGCAUCUUCGGAUGCAGAGGCGGCAGACUUCGGUGGCGCGAUAGCGCCAACGUUCUCAACUAUGACACGCAAAACGCGUGCUCCGUUGAAUGGGGUUGAUCAUG [C5A C27U C75A A142G U146G] | ≤ -4.2 |
| GGAUAUUCUCGAUCUAACAAAAAAGACAAAUCUGCCACAAAGCUUGAGAGCAUCUUCGGAUGCAGAGGCGGCAGCCUUCGGUGGGGCGAUAGCGCCAACGUUCUUAACUAUGACACGCAAAACGCGUGCUCCGUUGAAUGGAGUUUAUCAUG [C5A C85G C105U] | -1.21 |
| GGAUAUUCUCGAUCUAACAAAAAAGACAAAUCUGCCACAAAGCUUGAGAGCAUCUUUGGAUGCAGAGGCGGCAGCCUUCGGUGGUGCGAUAGCGCCAACGUUCUCAACUAUGACACGCAAAACGCGUGCUCCGUUGAAUGGAGUUUAUCAUG [C5A C57U C85U] | 0.39 |
| GGAUAUUCUCGAUCUAACAAAAAAGACAAAUCUGCCACAAGGCUUGAGAGCAUCUUCAGCUGCAGAGGCGGCAGCCUUCGGUGACGCGAUAGCGCCAACGUUCUCUACUAUGACACGCAAAACGCGUGCUUCGUUGAAUGGAGUUAAUCAUG [C5A A41G G58A A60C G84A A106U C131U U146A] | -3.76 |
| GGAUAUUCUCGAUCUAACAAAAAAGACAAAUCUGCCACAAAGCUUGAGAGCAUCUUGGGAUGCAGAGGCGGUUGCCUUCCGUGGCGCGAUAGGGCCAACGUUCUCAACUUUGACACGCAAAACGCGUGCUCCGUUGAAUGGAGUUUAUCAUG [C5A C57G C72U A73U G80C C93G A110U] | ≤ -4.2 |
| GGAUAUUCUCGAUCUAACAAAAAAGACAAAUCUGCCACAAAGCUUGAGAGUAUCUUCGGAUGCAGAGGCGGCAGCCUUCGGUGGCGCGAUAGCGCCAACGUUCUCAACUAUGACACGCAAAACGCGUGCUCCGUUGAAUGGAGUUUAUCAUG [C5A C51U] | -0.595 |
| GGAUAUUCUCGAUCUAACAAAAAAGACAAAUCUGCCACAAAGCUUGAGAGCAUCUUCGGAUGCAGAGGCGGCAGCCUUCGGUGGCGCGAUAGCGCCAACGUUCUCAACUCUGACACGCAAAACGCGUGCUCCGUUGAAUGGAGUUUAUCAUG [C5A A110C] | ≤ -4.2 |
| GGAUAUUCUCGAUCUAACAAAAAAGACAAAUCUGCCACAAAGCUUGAGAGCAUCUUCGGAUGCAGAGGCGGCAGCCUUCGGUGGUGCGAUAGUGCCAACGUUCUCAACUAUGACACGCAAAACGCGUGCUCCGUUGAAUGGAGUUUAUCAUG [C5A C85U C93U] | -1.66 |
| GGAUAUUCUCGAUCUAACAAAAAAGACAAAUCUGCCAUAAAGCUUGAGAACAUCUUCGGGUGCAGAGGCGGCAGCCUUCGGUGGCGCGAUAGCGACAACGUUUUCAACUAUGACACGCAAAACGCUUGCUCCGUUGAAUGGAGUUUAUCAUG [C5A C38U G50A A60G C95A C103U G126U] | -3.13 |
| GGAUAUUCUCGAUCUAAGAAAAAAGACAAAUCUGCCACAUAGCUUGAGAGCAUCUUCGGAUGCAGAGGCGGCAGCCUUCGGUGGCGCGAUAGCGCCAACGUUCUCAACUAUGACACGCAAAACGCGUGCUCCGUUGAAUGGAGUUUAUCAUG [C5A C18G A40U] | -0.118 |
| GGAUAUUCUCGAUCUAACAAAAAAGACAAAUCUGCCACAAAGCUUGAGAGCAUCUUCGGAUGCAGAGGCGGCAGCCUUCGGUGGCGCGAUAGCGCUAACGUUCUCAACUAUGACACGCAAAACGCGUGCUCCGUUGAAUGGAGUUUAUCAUG [C5A C96U] | 0.321 |
| GGAUAUUCUCGAUCUAACAAAAAAGACAAAUCUGCCACAAAGCUUGAGAGCAUCUUUGGAUGCAGAGGCGGCAGCCUUCGCUGGCGCGAUAGCCCCAACGUUCUCAAAUAUGACACGCAAAACGCGUGCUCCGUUGAAUGGACUUUAUCAUG [C5A C57U G81C G94C C108A G143C] | ≤ -4.2 |
